Assay [1] addresses T1, FcγRIIa R (extracellular domain with a His tag at the C terminus) (human, UniProt P12318 34-217).
T1 construct: extracellular domain; expressed in FreeStyle293 cells; also called FcgRIIa R; FcγRIIa type R; not shown: His tag at the C terminus
T1 sequence (looked up): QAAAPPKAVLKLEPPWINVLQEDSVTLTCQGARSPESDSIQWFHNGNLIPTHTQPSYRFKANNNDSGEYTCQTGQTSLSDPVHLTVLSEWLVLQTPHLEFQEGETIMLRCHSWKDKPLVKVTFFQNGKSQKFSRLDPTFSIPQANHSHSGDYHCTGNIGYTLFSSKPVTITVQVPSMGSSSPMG
Put plainly: SPR Biacore, relative binding. For orientation: In SPR one partner is held on a chip, and binding of the other changes the refractive index at the surface.

In assay [2] the target is T2, FcγRIa (human, UniProt P12314 16-292).
T2 construct: extracellular domain; also called FcgRI; CD64
T2 sequence (P12314 16-292): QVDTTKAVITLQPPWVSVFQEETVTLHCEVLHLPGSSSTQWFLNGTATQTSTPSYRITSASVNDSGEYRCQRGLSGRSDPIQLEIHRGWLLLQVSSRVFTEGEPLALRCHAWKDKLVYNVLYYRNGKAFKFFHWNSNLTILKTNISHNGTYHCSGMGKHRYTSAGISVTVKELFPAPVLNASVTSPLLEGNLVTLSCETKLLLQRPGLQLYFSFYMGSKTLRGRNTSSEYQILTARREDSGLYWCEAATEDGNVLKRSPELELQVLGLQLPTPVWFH
Put plainly: SPR; vs GpH7-B3/GpL16-k0=100.

B1: GpH7-A5/GpH7-B3 variant T335_05P/GpL16-k0 (antibody, human IgG1, kappa)
heavy 1: not shown
heavy 2: not shown
light: DIVMTQSPLSLPVTPGEPASISCQASESLVHSNRNTYLHWYLQKPGQSPQLLIYKVSNRFSGVPDRFSGSGSGTDFTLKISRVEAEDVGVYYCSQNTHVPPTFGQGTKVEIERTVAAPSVFIFPPSDEQLKSGTASVVCLLNNFYPREAKVQWKVDNALQSGNSQESVTEQDSKDSTYSLSSTLTLSKADYEKHKVYACEVTHQGLSSPVTKSFNRGEC
notes: heterodimerized; mutation in one H chain; also called He Ab
Regarding B1, the He/Con_2aR in assay [1] was 104 % of GpH7-A5/GpH7-B3/GpL16-k0 (=100).

B2: GpH7-A5/GpH7-B3 variant S267_09D/GpL16-k0 (antibody, human IgG1, kappa)
heavy 1: not shown
heavy 2: not shown
light: DIVMTQSPLSLPVTPGEPASISCQASESLVHSNRNTYLHWYLQKPGQSPQLLIYKVSNRFSGVPDRFSGSGSGTDFTLKISRVEAEDVGVYYCSQNTHVPPTFGQGTKVEIERTVAAPSVFIFPPSDEQLKSGTASVVCLLNNFYPREAKVQWKVDNALQSGNSQESVTEQDSKDSTYSLSSTLTLSKADYEKHKVYACEVTHQGLSSPVTKSFNRGEC
notes: as for B1
As for B2, the He/Con_2aR in assay [1] was 173 % of GpH7-A5/GpH7-B3/GpL16-k0 (=100).

B3: GpH7-A5/GpH7-B3 variant S337_15Y/GpL16-k0 (antibody, human IgG1, kappa)
heavy 1: not shown
heavy 2: not shown
light: DIVMTQSPLSLPVTPGEPASISCQASESLVHSNRNTYLHWYLQKPGQSPQLLIYKVSNRFSGVPDRFSGSGSGTDFTLKISRVEAEDVGVYYCSQNTHVPPTFGQGTKVEIERTVAAPSVFIFPPSDEQLKSGTASVVCLLNNFYPREAKVQWKVDNALQSGNSQESVTEQDSKDSTYSLSSTLTLSKADYEKHKVYACEVTHQGLSSPVTKSFNRGEC
notes: as for B1
On to B3, for which the He/Con_2aR in assay [1] is 105 % of GpH7-A5/GpH7-B3/GpL16-k0 (=100).

B4: GpH7-B3 variant A327_03V/GpL16-k0 (antibody, human IgG1, kappa)
heavy: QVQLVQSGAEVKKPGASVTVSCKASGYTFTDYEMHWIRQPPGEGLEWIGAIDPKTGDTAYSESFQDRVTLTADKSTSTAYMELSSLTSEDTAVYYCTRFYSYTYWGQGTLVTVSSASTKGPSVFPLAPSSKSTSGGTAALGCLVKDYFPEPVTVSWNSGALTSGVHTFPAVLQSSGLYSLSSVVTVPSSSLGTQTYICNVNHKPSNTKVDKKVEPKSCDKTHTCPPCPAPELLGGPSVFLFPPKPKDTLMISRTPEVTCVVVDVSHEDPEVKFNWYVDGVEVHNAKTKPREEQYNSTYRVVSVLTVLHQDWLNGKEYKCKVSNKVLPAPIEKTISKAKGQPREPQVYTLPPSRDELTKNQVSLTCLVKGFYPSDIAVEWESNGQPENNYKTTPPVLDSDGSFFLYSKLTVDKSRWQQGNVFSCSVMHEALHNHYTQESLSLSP
light: DIVMTQSPLSLPVTPGEPASISCQASESLVHSNRNTYLHWYLQKPGQSPQLLIYKVSNRFSGVPDRFSGSGSGTDFTLKISRVEAEDVGVYYCSQNTHVPPTFGQGTKVEIERTVAAPSVFIFPPSDEQLKSGTASVVCLLNNFYPREAKVQWKVDNALQSGNSQESVTEQDSKDSTYSLSSTLTLSKADYEKHKVYACEVTHQGLSSPVTKSFNRGEC
notes: homodimerized; also called Ho Ab A327_03V
In the case of B4, the Ho/Con_1a in assay [2] was 94.4 % of control.

B5: GpH7-A5/GpH7-B3 variant S337_07I/GpL16-k0 (antibody, human IgG1, kappa)
heavy 1: not shown
heavy 2: not shown
light: DIVMTQSPLSLPVTPGEPASISCQASESLVHSNRNTYLHWYLQKPGQSPQLLIYKVSNRFSGVPDRFSGSGSGTDFTLKISRVEAEDVGVYYCSQNTHVPPTFGQGTKVEIERTVAAPSVFIFPPSDEQLKSGTASVVCLLNNFYPREAKVQWKVDNALQSGNSQESVTEQDSKDSTYSLSSTLTLSKADYEKHKVYACEVTHQGLSSPVTKSFNRGEC
notes: as for B1
Consider B5, for which the He/Con_2aR in assay [1] is 109 % of GpH7-A5/GpH7-B3/GpL16-k0 (=100).

B6: GpH7-A5/GpH7-B3 variant S324_06M/GpL16-k0 (antibody, human IgG1, kappa)
heavy 1: not shown
heavy 2: not shown
light: DIVMTQSPLSLPVTPGEPASISCQASESLVHSNRNTYLHWYLQKPGQSPQLLIYKVSNRFSGVPDRFSGSGSGTDFTLKISRVEAEDVGVYYCSQNTHVPPTFGQGTKVEIERTVAAPSVFIFPPSDEQLKSGTASVVCLLNNFYPREAKVQWKVDNALQSGNSQESVTEQDSKDSTYSLSSTLTLSKADYEKHKVYACEVTHQGLSSPVTKSFNRGEC
notes: as for B1
As for B6, the He/Con_2aR in assay [1] is 123 % of GpH7-A5/GpH7-B3/GpL16-k0 (=100).

B7: GpH7-A5/GpH7-B3 variant T335_10E/GpL16-k0 (antibody, human IgG1, kappa)
heavy 1: not shown
heavy 2: not shown
light: DIVMTQSPLSLPVTPGEPASISCQASESLVHSNRNTYLHWYLQKPGQSPQLLIYKVSNRFSGVPDRFSGSGSGTDFTLKISRVEAEDVGVYYCSQNTHVPPTFGQGTKVEIERTVAAPSVFIFPPSDEQLKSGTASVVCLLNNFYPREAKVQWKVDNALQSGNSQESVTEQDSKDSTYSLSSTLTLSKADYEKHKVYACEVTHQGLSSPVTKSFNRGEC
notes: as for B1
As to B7, the He/Con_2aR in assay [1] is 111 % of GpH7-A5/GpH7-B3/GpL16-k0 (=100).

B8: GpH7-A5/GpH7-B3 variant S337_09D/GpL16-k0 (antibody, human IgG1, kappa)
heavy 1: not shown
heavy 2: not shown
light: DIVMTQSPLSLPVTPGEPASISCQASESLVHSNRNTYLHWYLQKPGQSPQLLIYKVSNRFSGVPDRFSGSGSGTDFTLKISRVEAEDVGVYYCSQNTHVPPTFGQGTKVEIERTVAAPSVFIFPPSDEQLKSGTASVVCLLNNFYPREAKVQWKVDNALQSGNSQESVTEQDSKDSTYSLSSTLTLSKADYEKHKVYACEVTHQGLSSPVTKSFNRGEC
notes: as for B1
In the case of B8, in assay [1], the He/Con_2aR was 115 % of GpH7-A5/GpH7-B3/GpL16-k0 (=100).

B9: GpH7-A5/GpH7-B3 variant S267_19Q/GpL16-k0 (antibody, human IgG1, kappa)
heavy 1: not shown
heavy 2: not shown
light: DIVMTQSPLSLPVTPGEPASISCQASESLVHSNRNTYLHWYLQKPGQSPQLLIYKVSNRFSGVPDRFSGSGSGTDFTLKISRVEAEDVGVYYCSQNTHVPPTFGQGTKVEIERTVAAPSVFIFPPSDEQLKSGTASVVCLLNNFYPREAKVQWKVDNALQSGNSQESVTEQDSKDSTYSLSSTLTLSKADYEKHKVYACEVTHQGLSSPVTKSFNRGEC
notes: as for B1
Take B9: the He/Con_2aR in assay [1] is 135 % of GpH7-A5/GpH7-B3/GpL16-k0 (=100).

B10: GpH7-A5/GpH7-B3 variant S298_08L/GpL16-k0 (antibody, human IgG1, kappa)
heavy 1: not shown
heavy 2: not shown
light: DIVMTQSPLSLPVTPGEPASISCQASESLVHSNRNTYLHWYLQKPGQSPQLLIYKVSNRFSGVPDRFSGSGSGTDFTLKISRVEAEDVGVYYCSQNTHVPPTFGQGTKVEIERTVAAPSVFIFPPSDEQLKSGTASVVCLLNNFYPREAKVQWKVDNALQSGNSQESVTEQDSKDSTYSLSSTLTLSKADYEKHKVYACEVTHQGLSSPVTKSFNRGEC
notes: as for B1
With B10, the He/Con_2aR in assay [1] was 105 % of GpH7-A5/GpH7-B3/GpL16-k0 (=100).

B11: GpH7-A5/GpH7-B3 variant T335_07I/GpL16-k0 (antibody, human IgG1, kappa)
heavy 1: not shown
heavy 2: not shown
light: DIVMTQSPLSLPVTPGEPASISCQASESLVHSNRNTYLHWYLQKPGQSPQLLIYKVSNRFSGVPDRFSGSGSGTDFTLKISRVEAEDVGVYYCSQNTHVPPTFGQGTKVEIERTVAAPSVFIFPPSDEQLKSGTASVVCLLNNFYPREAKVQWKVDNALQSGNSQESVTEQDSKDSTYSLSSTLTLSKADYEKHKVYACEVTHQGLSSPVTKSFNRGEC
notes: as for B1
Turning to B11, the He/Con_2aR in assay [1] was 109 % of GpH7-A5/GpH7-B3/GpL16-k0 (=100).

The record behind these values is US20180155451A1 (published 2018).
